Legend:
[1] = biological target: T1, deoxyhypusine synthase F272A, His-tagged (human, UniProt P49366 1-369, F272A, RED-tris-NTA 2nd Generation dye on the His tag); assay: MST; His-tagged DHS variants labelled with RED-tris-NTA 2nd Generation, 8.32 nM; eIF5A titrated, sixteen dilutions 0.00175–57.5 μM; 50 mM Tris, 200 mM NaCl, 5 mM β-ME pH 8; Monolith NT.115, 40% excitation power, 60% MST power; no NAD or SPD; details: both partners purified
T1 construct: human deoxyhypusine synthase, Uniprot P49366, residues 1-369, site-directed mutant of the pET24d full-length construct; also called DHS F272A; source: E. coli, purified; not shown: 6xHis, N-terminal, kept
T1 sequence (looked up): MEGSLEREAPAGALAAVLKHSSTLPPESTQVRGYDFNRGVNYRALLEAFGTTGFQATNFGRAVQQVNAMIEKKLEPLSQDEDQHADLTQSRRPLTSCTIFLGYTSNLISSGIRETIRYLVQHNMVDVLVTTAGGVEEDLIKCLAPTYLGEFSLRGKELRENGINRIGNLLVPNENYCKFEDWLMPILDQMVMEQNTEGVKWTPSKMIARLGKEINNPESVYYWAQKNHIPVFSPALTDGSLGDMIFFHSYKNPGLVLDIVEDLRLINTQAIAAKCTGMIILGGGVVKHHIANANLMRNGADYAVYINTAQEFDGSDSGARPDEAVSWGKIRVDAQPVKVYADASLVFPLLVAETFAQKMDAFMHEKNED

[2] = biological target: T2, deoxyhypusine synthase E137A, His-tagged (human, UniProt P49366 1-369, E137A, RED-tris-NTA 2nd Generation dye on the His tag); assay: as above; details: both partners purified
T2 construct: human deoxyhypusine synthase, Uniprot P49366, residues 1-369, site-directed mutant of the pET24d full-length construct; also called DHS E137A; source: E. coli, purified; not shown: 6xHis, N-terminal, kept
T2 sequence (looked up): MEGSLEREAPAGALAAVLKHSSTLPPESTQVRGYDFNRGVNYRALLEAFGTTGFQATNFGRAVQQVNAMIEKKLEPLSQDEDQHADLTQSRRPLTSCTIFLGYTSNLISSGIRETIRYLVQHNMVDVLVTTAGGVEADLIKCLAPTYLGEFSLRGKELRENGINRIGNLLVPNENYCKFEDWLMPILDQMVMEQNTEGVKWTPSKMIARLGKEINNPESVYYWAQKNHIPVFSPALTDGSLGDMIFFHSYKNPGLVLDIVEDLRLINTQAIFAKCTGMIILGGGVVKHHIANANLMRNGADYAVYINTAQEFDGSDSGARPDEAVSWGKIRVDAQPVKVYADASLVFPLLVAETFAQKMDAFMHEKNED

Kd [1]: 504 ± 154 nM
Kd [2]: 2550 ± 880 nM
B1: eukaryotic translation factor 5A (eIF5A-1), residues 15-151 (domain or fragment)
chain: not shown
notes: human eIF5A1, residues 15-151, from pET28-MHL (Addgene); The purification protocol removes the tag with TEV; source: E. coli, purified (HisTrap, TEV cleavage, reverse HisTrap, SEC); not shown: His tag, N-terminal, cleaved

Reference: PMC10042821, “Cryo-EM structure of human eIF5A-DHS complex reveals the molecular basis of hypusination-associated neurodegenerative disorders” (Nature Communications, 2023)
